Here are results for three molecules from US20110300156A1 (Genmab, published 2011).

Residue numbers refer to the chain shown, from its start.

The target in assay [1] is T1, human tissue factor (TF), membrane-bound on cells (human, UniProt P13726 33-295).
T1 construct: whole, on cells; also called cellular TF
Briefly: FACS, Bx-PC3 cells. The method, boiled down: (§1)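 Binding curves came from non-linear sigmoidal variable-slope fits of flow cytometry signal. Serially diluted HuMab was applied for 30 minutes on ice in PBS buffer containing 0.1% BSA and 0.02% Na-azide, with PE anti-human IgGFc secondary added after washing, again 30 minutes on ice, dark.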
In general terms: Flow cytometry measures light scatter and fluorescence of single cells or particles in a stream.

Assay [2] deals with T1, human tissue factor (TF), …. Briefly: FACS, MDA-MB-231 cells. The method, boiled down:
as §1

Assay [3] has the same target. Put plainly: cell-based or functional assay.
For assay [4] the target is unchanged. Put plainly: FACS, Bx-PC3 cells, 30 µg/mL. Summed up: as §1
Assay [5] shares this target. Briefly: FACS, MDA-MB-231 cells, 30 µg/mL. The method, boiled down: as §1
Assay [6] has as its target T2, TFECDHis (extracellular domain of tissue factor, amino acid 1-251, with C-terminal His tag) (human, UniProt P13726 33-251).
T2 construct: range 1-251; The stated range 1-251 starts at residue 1 of NP-001984; also called extracellular domain of TF
Briefly: ELISA, coated TFECDHis, mean of 3. Summed up:
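Plates coated overnight at +4° C with 0.5 μg/mL TFECDHis in PBS pH 7.4, blocked with 2% chicken serum. Serially diluted HuMabs bound 1 h at RT with shaking, detected with HRP anti-human IgG. Binding curves fitted by sigmoidal dose-response with variable slope; anti-KLH HuMab served as negative control.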
(In general: ELISA stands for enzyme-linked immunosorbent assay.)

The target of assay [7] is T2, TFECDHis (extracellular domain of …). Briefly: SPR BIAcore 3000, HuMab immobilized, TFECDHis analyte. The procedure: (§2) Antibody binding to TF was analyzed by surface plasmon resonance in a BIAcore 3000 (GE Healthcare). TFECDHis was used for the analysis. HuMab antibodies (500 resonance units) were immobilized on the CM-5 sensor chip according to the procedure recommended by the manufacturer. Briefly, after surface activation by EDC and NHS HuMab antibody was injected over the activated CM-5 surface in 10 mM sodium-acetate, pH ranging from 4.0 to 5.5 at 5 μl/min. followed by 1 M Ethanolamine for deactivation. Concentration series of TFECDHis in HBS-EP buffer were injected over the immobilized antibodies at a flow rate of 30 μl/min for 180 sec. Regeneration of the HuMab surface was performed by injection of 10 mM Glycine-HCl pH 2.0 or 10 mM sodium acetate pH 3.0. Kinetic analysis was performed using double reference subtraction and model 1:1 (langmuir) binding analysis.
A general note: SPR reads the build-up and loss of mass on a sensor chip optically.

Assay [8] shares this target. Briefly: competition ELISA, inhibition of FVIIa (100 nM) binding to coated TFECDHis. The method, then:
ELISA plates were coated overnight with TFECDHis (0.5 μg/mL, 100 μL per well). Plates were emptied, blocked with PBS containing 2% (v/v) chicken serum (1 hour, RT), and emptied again. […] Plates were washed and incubated with swine-anti-rabbit IgG-HRP antibody (1:2,500; DAKO). After washing, the immune complexes were visualized using ABTS as a substrate.

For assay [9], the target named is T3, murine tissue factor (TF) on transfected HEK293F cells (murine, UniProt P20352 29-294).
T3 construct: whole, on cells; also called murine TF; TFmm
T3 sequence (looked up): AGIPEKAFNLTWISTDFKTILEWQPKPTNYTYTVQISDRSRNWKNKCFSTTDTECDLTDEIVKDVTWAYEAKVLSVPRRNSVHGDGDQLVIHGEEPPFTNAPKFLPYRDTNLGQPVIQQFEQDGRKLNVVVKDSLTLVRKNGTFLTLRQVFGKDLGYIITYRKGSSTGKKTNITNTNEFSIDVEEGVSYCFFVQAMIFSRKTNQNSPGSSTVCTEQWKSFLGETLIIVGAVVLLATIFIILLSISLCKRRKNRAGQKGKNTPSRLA
Put plainly: FACS on transfected HEK293F cells, 30 µg/mL antibody [panel I].

In assay [10] the target is T2, TFECDHis (extracellular domain of …). Put plainly: SPR BIAcore 3000, HuMab immobilized, TFECDHis analyte; footnote: n.a. not assessable = >10^-3 sec^-1. The procedure: as §2
In assay [11] the target is T1, human tissue factor (TF), …. Briefly: FACS, A431 cells. The method, boiled down: as §1
Assay [12] deals with T4, TF (Innovin) (UniProt P13726 33-295, limits assumed). Briefly: cell-based or functional assay.
Assay [13] has as its target T1, human tissue factor (TF), …. Put plainly: FACS, A431 cells, 30 µg/mL. Summed up:
as §1

Assay [14] shares this target. Briefly: FACS, TF transfected CHO cells (S1015-TF). The method, boiled down:
as §1

For assay [15] the target is unchanged. Put plainly: FACS, TF transfected CHO cells (S1015-TF), 7.5 µg/mL. The method, boiled down:
as §1

Assay [16] deals with T3, murine tissue factor (TF) on …. Put plainly: FACS on transfected HEK293F cells, 30 µg/mL antibody [panel J].
Assay [17] addresses T1, human tissue factor (TF), …. Put plainly: cell-based or functional assay. This is another data set of the same source.
In assay [18] the target is T4, TF (Innovin). Put plainly: cell-based or functional assay. This is another data set of the same source.
For assay [19], the target named is T1, human tissue factor (TF), …. Briefly: cell-based or functional assay. This is another data set of the same source.
Assay [20] addresses T3, murine tissue factor (TF) on …. Put plainly: FACS on transfected HEK293F cells, 30 µg/mL antibody [panel H].

B1: anti-TF HuMab 087-Lg6 (antibody, V domains shown)
VH: EVQLVQSGAEVKKPGESLKISCKGSGYSFTSCWIGWVRQMPGKGLEWMGIIYPGDSDTRYSPSFQGQVTISADKSISTAYLQWSSLKASDTAMYYCARHKLGMDHDAFDIWGQGTMVTVSS
VL: DIQMTQSPSSLSASVGDRVTITCRASQGISSWLAWYQQKPEKAPKSLIYAASSLQSGVPSRFSGSGSGTDFTLTISSLQPEDFATYYCQQYNSYPPTFGQGTTVEVK
notes: Human monoclonal antibody from HuMab mice
What is called EC50 is the concentration at which the effect is half-maximal. Low readings indicate higher potency in that assay, high ones lower potency in that assay. As a reminder, the kon is the rate constant with which the complex forms. Low values mean slower complex formation, high ones faster complex formation. For orientation: koff means the first-order rate constant of dissociation. Read a high koff as fast dissociation. For the molecule B1, the values for the EC50 in [1], in assay [2] and in [6] were 7.19 nM, 8.28 nM and 0.09 nM, respectively. The “max inhibition of FVIIa induced IL-8 release (MDA-MB-231)” value in assay [3] worked out at 4.3%. In addition, the “Max MFI” value in assay [4] is 1030; in assay [5] it was 1110. In [7], this molecule displayed a kon of 591000 M⁻¹ s⁻¹. For the same molecule, the max inhibition in assay [8] came out at 35%. Moreover, in [9], the binding result is given as “no binding (tested: 30 µg/mL)”. In [10], this molecule showed a koff of over 0.001 s⁻¹.

B2: anti-TF HuMab 092-A09 (antibody, V domains shown)
VH: EVQLLESGGGLVQPGGSLRLSCAASGFTFNNYAMSWVRQAPGKGLEWVSSISGSGGRTYYADSVKGRFTISRDNSKNTLFLQMNSLRAEDTAVYYCAKTPWGYYFDYWGQGTLVTVSS
VL: B1 VL with W32R, P96Y, T103K, V104L, V106I
notes: as for B1
The term Kd denotes a measure of binding affinity in units of concentration. Higher therefore signals lower affinity. Take B2: the EC50 in assay [11] was 0.83 nM; in [1], 0.84 nM; in [2] it was 0.53 nM; in [6], 0.18 nM; in [14] it was 1.32 nM. Also, the “IC50, inhibition of blood coagulation (TF induced clotting time)” value with TF (Innovin) [12] is 0.2 nM. Further, the “Max MFI” value is 3140 in assay [13], 1260 in assay [4], 2290 in assay [5] and 5410 in assay [15]. Also, binding in assay [7] was characterised by a dissociation constant (Kd) of 14.1 nM. The molecule also registered a max inhibition in [8] of 90%. In [16], the binding result is reported as “no binding (tested: 30 µg/mL)”.

B3: anti-TF HuMab 044 (antibody, V domains shown)
VH: QVQLVESGGGVVQPGRSLRLSCAASGFTFSDYAMHWVRQAPGKGLEWVAVIPYDGDNKYYADSVKGRFTISRDNSKNTLYLQMNSLRAEDTAVYYCAREDWGLEVDYWGQGALVTVSS
VL: AIQLTQSPSSLSASVGDRVTITCRASQGINSALAWYQQKPGKAPKLLIYDASSLESGVPSRFSGSGSGTDFTLTISSLQPEDFATYYCQQFNSYPLTFGGGTKVEIK
notes: as for B1
The IC50 is the concentration that inhibits the measured activity by half. Read a low IC50 as greater potency. For B3, the EC50 in assay [11] was 1.45 nM; in assay [1], 1.88 nM; in assay [2], 0.87 nM; in assay [14] it was 2.13 nM. Further, the “% max inhibition of FVIIa induced ERK phosphorylation (A431)” value in assay [17] is 45%. Besides, the “IC50, inhibition of FVIIa induced ERK phosphorylation (A431)” value in assay [17] was over 66.6 nM. For the same molecule, the “IC50, inhibition of FVIIa induced IL-8 release (MDA-MB-231)” value in assay [3] was 74.6 nM. Further, in assay [3], the “max inhibition of FVIIa induced IL-8 release (MDA-MB-231)” value came out at 17.2%. Besides, in the assay with TF (Innovin) [18], the “% max inhibition of FXa generation” value was found to be 3%. For the same molecule, the “EC50 of ADCC, A431 cells” value in assay [19] was 0.19 nM. Besides, the “EC50 of ADCC, Bx-PC3 cells” value in [19] worked out at 0.12 nM. Moreover, the “EC50 of ADCC, MDA-MB-231 cells” value in [19] worked out at 0.08 nM. The “Max MFI” value in assay [13] worked out at 2650; in assay [4], 1140; in assay [5], 1880; in assay [15], 5020. Besides, the IC50 in assay [8] turned out to be 0.8 nM. Besides, in assay [8], the max inhibition stood at 54%. Further, in [20], the binding result is “no binding (tested: 30 µg/mL)”.
